From patent US20250066446A1, “FUSION PROTEINS FOR THE TREATMENT OF CARDIOMETABOLIC DISEASES” (Shattuck Labs, Inc., priority 2022, published 2025) come the findings set out here.

The target of test [1] is T1, recombinant human Activin A (Homo sapiens, UniProt P08476).
T1 sequence (P08476 311-426): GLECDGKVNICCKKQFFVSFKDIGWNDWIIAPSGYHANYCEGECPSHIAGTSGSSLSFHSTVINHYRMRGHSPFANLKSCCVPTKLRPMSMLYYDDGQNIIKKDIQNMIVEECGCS
Kind of test: MSD platform-based binding assay to plate-bound Activin A. The following applies: 3× serial dilutions of culture supernatants of HEK293T cells transfected with mmRNA constructs. The protocol: The binding by a recombinant human ACVR2B-Fc fusion protein to activin A (also known as Inhibin beta A) was characterized using a Meso Scale Discovery (MSD) platform-based assay. Briefly, Activin A was coated on a plate and 8× serial dilutions of the purified recombinant human ACVR2B-Fc fusion protein were also added in a series of wells. The protein captured by the plate-bound Activin A was detected using an anti-human Fc antibody and a SULFO-TAG conjugated secondary antibody.
(§1) The binding to Activin A by the GLP-1-Fc-ACVR2B fusion protein produced using the mmRNA constructs was investigated using a Meso Scale Discovery (MSD) platform-based assay. Briefly, HEK293T cells were transfected with each mRNA construct using lipofectamine 2000, and culture supernatants were collected after 48 hours. Activin A was coated on a plate, and 3× serial dilutions of the culture supernatants were added to the plate for capture by the plate-bound Activin A. The protein captured by the plate-bound Activin A was detected using an anti-human Fc antibody and a SULFO-TAG conjugated secondary antibody. The MSD signals generated by the culture supernatants of HEK293T cells transfected with different mmRNA constructs were plotted as a line graph.

Another test deals with T2, recombinant human GDF-8 (Homo sapiens, UniProt O14793).
T2 sequence (O14793 267-375): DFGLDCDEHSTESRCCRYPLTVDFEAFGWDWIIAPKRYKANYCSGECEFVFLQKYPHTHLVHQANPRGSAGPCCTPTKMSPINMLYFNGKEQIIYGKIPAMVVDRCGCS
Description: MSD platform-based binding assay to plate-bound GDF-8. The following applies: 3× serial dilutions of culture supernatants of HEK293T cells transfected with mmRNA constructs. The protocol: The binding by a recombinant human ACVR2B-Fc fusion protein to GDF-8 (also known as myostatin) was characterized using a Meso Scale Discovery (MSD) platform-based assay. Briefly, GDF-8 was coated on a plate and 8× serial dilutions of the purified recombinant human ACVR2B-Fc fusion protein were also added in a series of wells. The protein captured by the plate-bound GDF-8 was detected using an anti-human Fc antibody and a SULFO-TAG conjugated secondary antibody.
as §1, with “GDF-8” for “Activin A”, “GDF-8.” for “Activin A.”

B1: GLP-1-Fc-ACVR2B chimeric protein: GLP-1 fused to ACVR2B extracellular domain via a hinge-CH2-CH3 Fc domain derived from IgG1; SEQ ID NO: 154 (protein)
chain: SGRGEAETRECIYYNANWELERTNQSGLERCEGEQDKRLHCYASWRNSSGTIELVKKGCWLDDFNCYDRQECVATEENPQVYFCCCEGNFCNERFTHLPEAGGPEVTYEPPPTAPTLLT
In the case of B1, in test [1], the “binding to Activin A” value is given as “binds to the human Activin A”. In the test with recombinant human GDF-8, the “binding to GDF-8” value is given as “binds to the human GDF-8”.
